The record followed here is patent publication US20130230540A1 (DOMANTIS, published 2013).

In experiment [1] the target is T1, recombinant human CD28/Fc Chimera (R&D Systems) (human, UniProt P10747 19-152).
T1 construct: Bought reagent (R&D Systems, Abingdon, UK); not shown: Fc portion of the bought chimera
The experiment can be described thus: SPR (BIAcore), CM5 chip coated with 12500 RU CD28-Fc; dAb injected at 68.1 µM. An excerpt:
(§1) All 58 clones were expressed and purified and tested on the BIAcore against a CM5 chip coated with 12500 RU (response units) of CD28-Fc. […] The protein concentrations used for BIAcore analysis were: […]
For orientation: In SPR one partner is held on a chip, and binding of the other changes the refractive index at the surface.

Experiment [2] has as its target T1, recombinant human CD28/Fc Chimera (R&D …). Kind of experiment: SPR (BIAcore), CM5 chip coated with 12500 RU CD28-Fc; dAb injected at 14.7 µM.
From the text: as §1

Experiment [3] has the same target. The experiment can be described thus: SPR (BIAcore), CM5 chip coated with 12500 RU of CD28-Fc, purified dAb, concentration not given.
From the text: as §1

The target is the same in experiment [4]. The experiment can be described thus: SPR (BIAcore), CM5 chip coated with 12500 RU CD28-Fc; dAb injected at 19.4 µM.
From the text: as §1

Experiment [5] shares this target. Kind of experiment: SPR (BIAcore), CM5 chip coated with 12500 RU CD28-Fc; dAb injected at 13.8 µM.
From the text: as §1

Experiment [6] shares this target. Kind of experiment: SPR (BIAcore), CM5 chip coated with 12500 RU CD28-Fc; dAb injected at 57.5 µM.
From the text: as §1

For experiment [7] the target is unchanged. The experiment can be described thus: SPR (BIAcore), CM5 chip coated with 12500 RU CD28-Fc; dAb injected at 16.6 µM.
From the text: as §1

For experiment [8] the target is unchanged. Kind of experiment: SPR (BIAcore), CM5 chip coated with 12500 RU CD28-Fc; dAb injected at 42.3 µM.
From the text: as §1

B1: DOM21-6 (other)
VH: EVQLLESGGGLVQPGGSLRLSCAASGFTFENYGMAWVRQAPGKGLEWVSNIGRAGSVTYYADSVKGRFTISRDNSKNTLYLQMNSLRAEDTAVYYCAKVQSWRTFDYWGQGTLVTVSS
notes: Human VH antibody single variable domain (dAb), expressed from pDOM5 and purified
Regarding B1, the binding result in experiment [1] is “binds”.

B2: DOM21-27 (other)
VL: DIQMTQSPSSLSASVGDRVTITCRASQSIGTGLRWYQQKPGKAPMLLIYRASILQSGVPSRFSGSGSGTDFTLTISSLQPEDFATYYCQQTTLQPFTFSQGTKVEIKR
notes: Human Vkappa antibody single variable domain (dAb), expressed from pDOM5 and purified
B2: the binding result in experiment [2] is recorded as “binds”.

B3: DOM21-44 (other)
VH: EVQLLESGGGLVQPGGSLRLSCAASGFTFARYTMVWVRQAPGKGLEWVSAIHFDGRTTYYADSVKGRFTISRDNSKNTLYLQMNSLRAEDTAVYYCAKNEWASLKHFDYWGQGTLVTVSS
notes: as for B1
On to B3, for which the binding result in experiment [3] is “binds”.

B4: DOM21-22 (other)
VH: EVQLLESGGGLVQPGGSLRLSCAASGFTFELYQMGWVRQAPGKGLEWVSTIMPSGNLTYYADSVKGRFTISRDNSKNTLYLQMNSLRAEDTAVYYCAKMWSLNLGFHAAFDYWGQGTLVTVSS
notes: as for B1
On to B4, for which the binding result in experiment [4] is “binds”.

B5: DOM21-18 (other)
VL: DIQMTQSPSSLSASVGDRVTITCRASQYIGTSLNWYQQKPGKAPKLLTYQASLLQSGVPSRFSGSGSGTDFTLTISSLQPEDFATYYCQQLALRPMTFGQGTKVEIKR
notes: Human Vkappa antibody single variable domain (dAb), DPK9/Jk1 framework, expressed from pDOM5 and purified
As to B5, the binding result in experiment [5] is listed as “binds”.

B6: DOM21-38 (other)
VH: EVQLLESGGGLVQPGGSLRLSCAASGFTFILYDMQWVRQAPGKGLEWVSRISANGHDTYYADSVKGRFTISRDNSKNTLYLQMNSLRAEDTAVYYCAKGPHYLFDYWGQGTLVTVSS
notes: as for B1
Take B6: the binding result in experiment [3] is “binds”.

B7: DOM21-20 (other)
VH: EVQLLESGGGLVQPGGSLRLSCAASGFTFPAYSMIWVRQAPGKGLEWVSTISPLGYSTYYADSVKGRFTISRDNSKNTLYLQMNSLRAEDTAVYYCAEQTAYLNRATEHFDYWGQGTLVTVSS
notes: as for B1
Regarding B7, in experiment [6], the binding result was “binds”.

B8: DOM21-28 (other)
VL: DIQMTQSPSSLSASVGDRVTITCRASQSISHSLVWYQQKPGKAPKLLIYWASLLQSGVPSRFSGSGSGTDFTLTISSLQPEDFATYYCQQGMTTPFTFGQGTKVEIKR
notes: as for B2
B8: the binding result in experiment [7] is “binds”.

B9: DOM21-4 (other)
VH: EVQLLESGGGLVQPGGSLRLSCAASGFTFSRYHMAWVRQAPGKGLEWVSVIDSLGLQTYYADSVKGRFTISRDNSKNTLYLQMNSLRAEDTAVYYCAEYGGAFDYWGQGTLVTVSS
notes: Human VH antibody single variable domain (dAb), DP47/JH4b framework, expressed from pDOM5 and purified
For the molecule B9, the binding result in experiment [8] is reported as “binds”.
